From patent US20220064329A1 (Novo Nordisk, published 2022)
Positions count from the first letter of the chain named. Names and notes keep the numbering of the source.

T1: recombinant human activated Factor VII (FVIIa) (human, UniProt P08709 61-212; P08709 213-466, ten glutamate residues of the Gla domain may be gamma-carboxylated)
T1 construct: chains tethered by a disulfide bond; also called Factor VIIa; rFVIIa
T1 sequence 1: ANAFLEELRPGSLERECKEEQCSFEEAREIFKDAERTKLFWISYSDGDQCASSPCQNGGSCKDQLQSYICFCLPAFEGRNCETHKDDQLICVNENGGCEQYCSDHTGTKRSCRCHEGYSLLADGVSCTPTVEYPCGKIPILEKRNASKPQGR
T1 sequence 2: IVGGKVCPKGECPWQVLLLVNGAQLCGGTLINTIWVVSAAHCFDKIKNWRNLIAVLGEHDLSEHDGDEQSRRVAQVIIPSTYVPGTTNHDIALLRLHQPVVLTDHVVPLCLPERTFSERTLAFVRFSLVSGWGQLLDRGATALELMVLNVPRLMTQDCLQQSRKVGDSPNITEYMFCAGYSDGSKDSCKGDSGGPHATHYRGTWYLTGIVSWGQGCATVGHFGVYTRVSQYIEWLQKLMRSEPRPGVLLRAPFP

B1: VH SEQ ID NO 522 / VL SEQ ID NO 318 (antibody, IgG4, V domains shown)
VH: QVQLQESGPGLVEPSQTLSLTCTVSGYSISSDSAWSWIRQPPGKGLEWIGYIQYSGSTNYNPSLKSRVTISRDTSKNQFSLKLSSVTAADTAVYYCARSVNYYGNSFAVGPWGQGTLVTVSS
VL: EIVLTQSPATLSLSPGERATLSCRASQGISDYLHWYQQKPGEAPRLLIKYTSQPATGIPARFSGSGSGTDFTLTISSLEPEDFAVYYCQNGHSFPLTFGQGTKLEIK
notes: humanized 11F2; IgG4 S228P/kappa
B2: VH SEQ ID NO 514 / VL SEQ ID NO 430 (antibody, IgG4, V domains shown)
VH: B1 VH with Q16D, T23A, S30T, G45K, I70M, A89L, P111Y
VL: B1 VL with I29V, H34A, E42Q, T51A, A84G
notes: as for B1
B3: VH SEQ ID NO 314 / VL SEQ ID NO 486 (antibody, IgG4, V domains shown)
VH: B1 VH with Q16D, T23A, I70M, R72V, A89L
VL: B1 VL with I29V, E42Q, T51A, A84G
notes: as for B1
B4: VH SEQ ID NO 522 / VL SEQ ID NO 310 (antibody, IgG4, V domains shown)
VH: B1 VH
VL: B1 VL with H34A, E42Q, T51A
notes: as for B1
B5: VH SEQ ID NO 314 / VL SEQ ID NO 454 (antibody, IgG4, V domains shown)
VH: B1 VH with Q16D, T23A, I70M, R72V, A89L
VL: B1 VL with I29V, T51A
notes: as for B1
B6: VH SEQ ID NO 314 / VL SEQ ID NO 462 (antibody, IgG4, V domains shown)
VH: B1 VH with Q16D, T23A, I70M, R72V, A89L
VL: B1 VL with I29V, E42Q, T51A, Q100A
notes: as for B1
B7: VH SEQ ID NO 514 / VL SEQ ID NO 366 (antibody, IgG4, V domains shown)
VH: B1 VH with Q16D, T23A, S30T, G45K, I70M, A89L, P111Y
VL: B1 VL with I29L, H34A, T51A
notes: as for B1
B8: VH SEQ ID NO 314 / VL SEQ ID NO 494 (antibody, IgG4, V domains shown)
VH: B1 VH with Q16D, T23A, I70M, R72V, A89L
VL: B1 VL with I29V, E42Q, T51A, F83V
notes: as for B1
B9: VH SEQ ID NO 514 / VL SEQ ID NO 446 (antibody, IgG4, V domains shown)
VH: B1 VH with Q16D, T23A, S30T, G45K, I70M, A89L, P111Y
VL: B1 VL with I29V, H34A, E42Q
notes: as for B1
B10: VH SEQ ID NO 514 / VL SEQ ID NO 454 (antibody, IgG4, V domains shown)
VH: B1 VH with Q16D, T23A, S30T, G45K, I70M, A89L, P111Y
VL: B1 VL with I29V, T51A
notes: as for B1
B11: VH SEQ ID NO 522 / VL SEQ ID NO 342 (antibody, IgG4, V domains shown)
VH: B1 VH
VL: B1 VL with E42Q, T69R, Q100A, I106L
notes: as for B1
B12: VH SEQ ID NO 514 / VL SEQ ID NO 486 (antibody, IgG4, V domains shown)
VH: B1 VH with Q16D, T23A, S30T, G45K, I70M, A89L, P111Y
VL: B1 VL with I29V, E42Q, T51A, A84G
notes: as for B1
B13: VH SEQ ID NO 314 / VL SEQ ID NO 350 (antibody, IgG4, V domains shown)
VH: B1 VH with Q16D, T23A, I70M, R72V, A89L
VL: B1 VL with E42Q, Q100A, I106L
notes: as for B1
B14: VH SEQ ID NO 314 / VL SEQ ID NO 358 (antibody, IgG4, V domains shown)
VH: B1 VH with Q16D, T23A, I70M, R72V, A89L
VL: B1 VL with E42Q
notes: as for B1
B15: VH SEQ ID NO 314 / VL SEQ ID NO 318 (antibody, IgG4, V domains shown)
VH: B1 VH with Q16D, T23A, I70M, R72V, A89L
VL: B1 VL
notes: as for B1
B16: VH SEQ ID NO 314 / VL SEQ ID NO 470 (antibody, IgG4, V domains shown)
VH: B1 VH with Q16D, T23A, I70M, R72V, A89L
VL: B1 VL with I29V, E42Q, T51A
notes: as for B1
B17: VH SEQ ID NO 514 / VL SEQ ID NO 382 (antibody, IgG4, V domains shown)
VH: B1 VH with Q16D, T23A, S30T, G45K, I70M, A89L, P111Y
VL: B1 VL with I29L, T51A
notes: as for B1
B18: VH SEQ ID NO 314 / VL SEQ ID NO 342 (antibody, IgG4, V domains shown)
VH: B1 VH with Q16D, T23A, I70M, R72V, A89L
VL: B1 VL with E42Q, T69R, Q100A, I106L
notes: as for B1
B19: VH SEQ ID NO 314 / VL SEQ ID NO 334 (antibody, IgG4, V domains shown)
VH: B1 VH with Q16D, T23A, I70M, R72V, A89L
VL: B1 VL with E42Q, T51A
notes: as for B1
B20: VH SEQ ID NO 514 / VL SEQ ID NO 350 (antibody, IgG4, V domains shown)
VH: B1 VH with Q16D, T23A, S30T, G45K, I70M, A89L, P111Y
VL: B1 VL with E42Q, Q100A, I106L
notes: as for B1
B21: VH SEQ ID NO 522 / VL SEQ ID NO 326 (antibody, IgG4, V domains shown)
VH: B1 VH
VL: B1 VL with A84G, Q100A, I106L
notes: as for B1
B22: VH SEQ ID NO 314 / VL SEQ ID NO 326 (antibody, IgG4, V domains shown)
VH: B1 VH with Q16D, T23A, I70M, R72V, A89L
VL: B1 VL with A84G, Q100A, I106L
notes: as for B1

Target: T1, recombinant human activated Factor VII …
Assay: BLI (Fortebio)
Method: All steps were performed in running buffer (20 mM HEPES buffer (pH 7.4), 150 mM NaCl, 5 mM CaCl2, 0.03% Tween 20, 1 mg/ml IgG-free BSA) at […] Antibodies were captured on anti-human tips (AHC, Fortebio) for 3 min at a concentration of 10 ug/ml. This was followed by a 3 min incubation to establish a baseline. Following this, association was monitored for 3 min using four different concentrations of VIIa (25 nm, 50 nM, 100 nM, and 200 nM), followed by a 3 mi dissociation. Sensorgrams were analysed using Fortebio data analysis software.

Kd [nM] | Binder
0.97 | B1
7.1 | B2
22 | B3
8.3 | B4
32 | B5
26 | B6
1.4 | B7
28 | B8
7.7 | B9
1.3 | B10
1.4 | B11
0.95 | B12
19 | B13
18 | B14
17 | B15
20 | B16
1.2 | B17
28 | B18
21 | B19
0.94 | B20
0.81 | B21
15 | B22
